Experiment [1] addresses T1, Ric8A1–492 (Bos taurus, UniProt Q5E9J8).
T1 construct: His6 (N); made in house; host or cells: E. coli BL21(DE3)
T1 sequence (Q5E9J8 1-492): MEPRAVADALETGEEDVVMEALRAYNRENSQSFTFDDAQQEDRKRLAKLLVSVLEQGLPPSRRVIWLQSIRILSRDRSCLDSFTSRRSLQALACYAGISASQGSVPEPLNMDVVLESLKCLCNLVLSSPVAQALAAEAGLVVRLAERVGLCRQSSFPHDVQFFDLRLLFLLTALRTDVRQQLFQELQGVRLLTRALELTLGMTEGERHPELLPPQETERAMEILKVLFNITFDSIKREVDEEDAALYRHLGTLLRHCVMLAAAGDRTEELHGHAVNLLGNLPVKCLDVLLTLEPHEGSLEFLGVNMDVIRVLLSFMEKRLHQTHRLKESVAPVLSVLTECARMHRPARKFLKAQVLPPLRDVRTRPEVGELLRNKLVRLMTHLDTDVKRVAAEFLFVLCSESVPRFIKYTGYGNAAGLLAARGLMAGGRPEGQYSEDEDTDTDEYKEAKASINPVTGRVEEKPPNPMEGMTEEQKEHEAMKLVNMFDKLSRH
Description: SEC complex formation of Gαt C-terminal fusion proteins with Ric8A1–492. The note with it: size-exclusion chromatography elution profiles. Type of experiment: binding, bovine. An excerpt: The C-terminal 18-mer peptide of Gαi corresponding to Gαt333–350, was previously shown to bind to Ric8A[26]. To identify C-terminal constructs of Gα that are suitable for crystallization with Ric8A, we tested one in which the 11 C-terminal residues of Gαt were fused to the B1 domain of Streptococcal protein G (GB1-Gαt340–350) and a second in which the 24 C-terminal residues of Gαt were fused to MBP (MBP-Gαt327–350). For Ric8A, we used a construct that is truncated at the C-terminus (Ric8A1–492) and that had been reported to retain the full functionality of Ric8A[26].
MBP-Gαt327–350 was purified by Ni-NTA chromatography followed by SEC using a HiLoad 16/600 Superdex 200 pg column equilibrated with 20 mM Tris-HCl (pH 7.5) buffer containing 100 mM NaCl, 1 mM EDTA, and 2 mM TCEP. Ric8A1–492/MBP-Gαt327–350 complexes were prepared by mixing the proteins at a 1:1.5 molar ratio in 5 mM maltose and loading the mixture onto a HiLoad 16/600 Superdex 200 pg column equilibrated with 20 mM Tris-HCl (pH 7.5) buffer containing 150 mM KCl, 5% glycerol, and 1 mM TCEP.
75 KDa Peak 1 Peak 2 75 KDa Peak 1 Peak 2
Supplementary Figure 1. Ric8A1-492 forms complexes with GB1-tagged Gαt340-350 andMBP-taggedGαt333-350. […] (B) Peak fractions in A analyzed by SDS-PAGE. […] (D) Peak fractions in C analyzed by SDS-PAGE. […]
On the technique in general: Size exclusion chromatography separates by hydrodynamic size, large species first.

Experiment [2] deals with T1, Ric8A1–492. Description: BLI: Avi-tagged I340Q/N343H mutant of Gαt binding Ric8A1–492. Also on record: species or system bovine. On the procedure:
An Octet RED96 system and streptavidin (SA)-coated biosensors (FortéBio, Menlo Park, CA) were used to measure association and dissociation kinetics for Gα peptides or the full-length Avi-tagged Gαt in relation to Ric8A1–492, Ric8A1–452, and Ric8A1–426. To obtain the Avi-tagged Gαt, Gαt was cloned into modified pET21a vector with the N-terminal His6-tag followed by the Avi tag and TEV cleavage site[59]. The Avi-tagged I340Q/N343H mutant of Gαt was prepared by QuikChange protocol. BL21(DE3) cells for expression of the Avi-tagged Gαt were grown in 2TY media supplemented with biotin (10 mg/liter), induced at OD600 of 0.6 with 50 µM IPTG and further grown overnight at 16 °C. Binding studies were performed in 20 mM Tris, 150 mM KCl, 5% glycerol, 1 mM TCEP, 0.5 mg/ml BSA, pH 8.0. All steps were performed at 26 °C, with biosensors stirred into 0.2 ml of sample in each well at 1000 rpm, and at a data acquisition rate of 5.0 Hz. N-terminally biotinylated Gαt333–350, Gαs363–380, C1 peptide and C2 peptide were loaded onto SA sensors at a concentration of 0.05, 0.05, 0.005, and 0.01 mg/ml for 40–90 seconds. Data for association and dissociation phases of the assay were collected as shown in Fig. 1b and Supplementary Figs. 8, 11, 12, and 14. To correct for baseline drift and non-specific binding, reference sensors lacking bound Gα peptide were used in the BLI assays with Ric8A proteins at the highest concentrations. Kinetic data fitting was performed using FortéBio Data Analysis software 10.0. For each concentration of Ric8A1–492, dissociation rate constant (kd) values were calculated from the corresponding dissociation phases of the curves. These kd values were used to calculate the association rate constant (ka) values from the association phases for each concentration according to the equation1 ka=kobserved-kd∕Ric8A1-492 The average ka and kd were calculated as means of the individual ka and kd values for all curves. Equilibrium dissociation constant KD was calculated as mean kd/mean ka. Steady-state data fitting was performed using the GraphPad Prism 7 software with the equation for one site specific binding.
Supplementary Figure 13. (A) Kinetics of association and dissociation of Ric8A1-492 and the Avi-tagged I340Q/N343H mutant of Gαt coupled to a streptavidin biosensor as determined using BLI. Representative experiment is shown. (B) The steady-state binding curve. For experiments performed in […]
(1 picture or pasted object on this page, not shown here)

The target of experiment [3] is T1, Ric8A1–492. In words: DSF: thermal stabilization of Ric8A1–492 by Gαt C-terminal peptides. Type of experiment: binding, bovine. On the procedure:
Fig. 1 Interaction of Ric8A with the C-terminus of Gα. a Thermal denaturation, as determined by differential scanning fluorimetry (DSF), of 8.7 µM Ric8A1–492 in the absence (black) or presence of 50 µM Gαt340–350 (blue) or Gαt333–350 (red). RFU – relative fluorescence units. Average normalized curves are shown. The Tm values (°C) are shown as mean ± SD (n = 3). b Kinetics of association and dissociation for Ric8A1–492 and biotinylated Gαt333–350 coupled to a streptavidin biosensor as determined using BLI. Representative curves are shown.
Stabilities of Ric8A constructs with and without peptide ligands were assessed using differential scanning fluorimetry (DSF), in which an increase in fluorescence of the Sypro Orange dye is measured. Ric8A1–492, Ric8A1–452 and Ric8A1–426 in 20 mM Tris-HCl (pH 7.5) buffer containing 150 mM KCl, 5% glycerol, and 1 mM TCEP with and without peptide were used at a final concentration of 0.5 mg/ml and were supplemented with a 1000-fold dilution of Sypro Orange dye (Invitrogen). Temperature was increased at 1 °C/minute and fluorescence signals were recorded using real-time PCR (C1000 Touch thermal cycler, Bio Rad), with the cycler set to FRET mode and the excitation wavelength set at 450–490 nm and the emission wavelength at 560–580 nm.
In general terms: DSF heats the sample and reads unfolding from a dye or from intrinsic fluorescence.

Experiment [4] deals with T1, Ric8A1–492. In words: BLI: biotinylated Gα C-terminal peptides (Gαt333–350, Gαs363–380, C1, C2) on streptavidin biosensor binding Ric8A1–492. The arrangement: species or system bovine. The note with it: Octet RED96, N-terminally biotinylated peptide on streptavidin biosensor, 20 mM Tris, 150 mM KCl, 5% glycerol, 1 mM TCEP, 0.5 mg/ml BSA, pH 8.0, 26 °C, 1:1 binding model, mean ± SD, read-out: association constant (ka). On the procedure: An Octet RED96 system and streptavidin (SA)-coated biosensors (FortéBio, Menlo Park, CA) were used to measure association and dissociation kinetics for Gα peptides or the full-length Avi-tagged Gαt in relation to Ric8A1–492, Ric8A1–452, and Ric8A1–426. To obtain the Avi-tagged Gαt, Gαt was cloned into modified pET21a vector with the N-terminal His6-tag followed by the Avi tag and TEV cleavage site[59]. The Avi-tagged I340Q/N343H mutant of Gαt was prepared by QuikChange protocol. BL21(DE3) cells for expression of the Avi-tagged Gαt were grown in 2TY media supplemented with biotin (10 mg/liter), induced at OD600 of 0.6 with 50 µM IPTG and further grown overnight at 16 °C. Binding studies were performed in 20 mM Tris, 150 mM KCl, 5% glycerol, 1 mM TCEP, 0.5 mg/ml BSA, pH 8.0. […] For each concentration of Ric8A1–492, dissociation rate constant (kd) values were calculated from the corresponding dissociation phases of the curves. These kd values were used to calculate the association rate constant (ka) values from the association phases for each concentration according to the equation1 ka=kobserved-kd∕Ric8A1-492 The average ka and kd were calculated as means of the individual ka and kd values for all curves. Equilibrium dissociation constant KD was calculated as mean kd/mean ka. […]

A further experiment concerns Ric8A1–452. In words: DSF: thermal stabilization of Ric8A1–452 by Gαt333–350. Type of experiment: binding, bovine. Particulars: 9.1 µM Ric8A1–452, 50 µM peptide, mean ± SD.
The target in the next experiment is Ric8A. The note with it: read-out: KD previously estimated; cited from earlier work.

Broadly, the Kd is the constant that tells how readily two partners part at equilibrium.

Like-named read-outs stand apart in the source and are kept apart here. No end group written: not given here.

Description for Ric8A1–452: Stabilities of Ric8A constructs with and without peptide ligands were assessed using differential scanning fluorimetry (DSF), in which an increase in fluorescence of the Sypro Orange dye is measured. […] Temperature was increased at 1 °C/minute and fluorescence signals were recorded using real-time PCR (C1000 Touch thermal cycler, Bio Rad), with the cycler set to FRET mode and the excitation wavelength set at 450–490 nm and the emission wavelength at 560–580 nm.

Consider “GB1-Gαt340–350: 11 C-terminal residues of Gαt fused to the B1 domain of Streptococcal protein G (IKENLKDCGLF; also: fused to GB1 (B1 domain of protein G), end not given here)”, for which the “complex formation with Ric8A1–492 (in words)” value with Ric8A1–492 [1] is recorded as “formed complexes with Ric8A1–492 at nearly 1:1 stoichiometry”.
With “I340Q/N343H: Avi-tagged double I340Q/N343H mutant of full-length Gαt”, the Kd with Ric8A1–492 [2] (BLI steady state, Avi-tagged mutant on streptavidin biosensor, mean ± SD, n = 3 (triplicate), read-out: KD for Ric8A1–492) amounted to 2.3 ± 0.4 µM; with Ric8A1–492 [2] (BLI, representative experiment (Suppl. Fig. 13B), read-out: KD, steady-state binding curve), 2.6 µM; in the experiment with Ric8A1–492 [2] (Suppl Fig 13B BLI steady state, replicate 1, read-out: KD uM (stady state)), 1.95 µM; with Ric8A1–492 [2] (Suppl Fig 13B BLI steady state, replicate 2, read-out: KD uM (stady state)), 2.3 µM; with Ric8A1–492 [2] (Suppl Fig 13B BLI steady state, replicate 3, read-out: KD uM (stady state)), 2.66 µM. Moreover, in the experiment with Ric8A1–492 [2] (relative to Gαt), the “decrease of affinity for Ric8A1–492” value is on record as “about 100 fold”.
In the case of DAVTDIIIKENLKDCGLF [Gαt333–350], the “stabilization effect (Tm shift) on Ric8A1–492” value at Ric8A1–492 [3] is ~ 9 °C. In addition, the kon on Ric8A1–492 [4] is 130000 ± 3e+09 M⁻¹ s⁻¹.
With “Gαt340–350: 11-mer C-terminal peptide of Gαt (IKENLKDCGLF)”, the “Tm of Ric8A1–492 in the presence of peptide” value with Ric8A1–492 [3] (8.7 µM Ric8A1–492, 50 µM peptide, mean ± SD (n = 3)) amounted to 48.0 ± 0.3 °C. The “mean Tm of Ric8A1-492 + peptide” value with Ric8A1–492 [3] (source data, mean of 3 replicates) is on record as 48 C. Further, the “Tm (C ) of Ric8A1-492 + peptide” value with Ric8A1–492 [3] (source data, replicate 1) amounted to 48.1 C; in the experiment with Ric8A1–492 [3] (source data, replicate 2) it was 47.69 C; with Ric8A1–492 [3] (source data, replicate 3) it was 48.35 C. The “Tm of Ric8A1–452 in the presence of peptide” value in the experiment on Ric8A1–452 worked out at 55.75 °C.
On to “MBP-Gαt327–350: 24 C-terminal residues of Gαt fused to MBP (NVKFVFDAVTDIIIKENLKDCGLF; not fully specified (N-terminus); also: N-terminal fusion to modified MBP via AAAH linker, His6 tag)”, for which the “complex formation with Ric8A1–492 (in words)” value with Ric8A1–492 [1] was “formed complexes with Ric8A1–492 at nearly 1:1 stoichiometry”.
As for “Gα C-terminus: C-terminal 18-mer peptide of Gαi previously shown to bind to Ric8A (ref 26) (DAVTDVIIKNNLKDCGLF; UniProt P63096 337-354, looked up, fragment)”, at Ric8A, the Kd is 12 µM.

The values above are taken from PMC6625990, “Structural underpinnings of Ric8A function as a G-protein α-subunit chaperone and guanine-nucleotide exchange factor” (Nature Communications, 2019).
